Assay results from patent US20150010525A1, “Catalytic Tagging System to Study Macro-Molecular Interactions Using Engineered Ubiquitin Ligase and Ubiquitin-Like Proteins to Facilitate Substrate Identification” (THE REGENTS OF THE UNIVERSITY OF CALIFORNIA, priority 2012, published 2015).

B1: Medium-chain specific acyl-CoA dehydrogenase, mitochondrial: potential cIAP1 substrate (protein, UniProt P11310 26-421, looked up)
Medium-chain specific …: KANRQREPGLGFSFEFTEQQKEFQATARKFAREEIIPVAAEYDKTGEYPVPLIRRAWELGLMNTHIPENCGGLGLGTFDACLISEELAYGCTGVQTAIEGNSLGQMPIIIAGNDQQKKKYLGRMTEEPLMCAYCVTEPGAGSDVAGIKTKAEKKGDEYIINGQKMWITNGGKANWYFLLARSDPDPKAPANKAFTGFIVEADTPGIQIGRKELNMGQRCSDTRGIVFEDVKVPKENVLIGDGAGFKVAMGAFDKTRPVVAAGAVGLAQRALDEATKYALERKTFGKLLVEHQAISFMLAEMAMKVELARMSYQRAAWEVDSGRRNTYYASIAKAFAGDIANQLATDAVQILGGNGFNTEYPVEKLMRDAKIYQIYEGTSQIQRLIVAREHIDKYKN
B2: Rho GDP-dissociation inhibitor 2: potential cIAP1 substrate (protein, UniProt P52566 2-201, looked up)
Rho GDP-dissociation …: TEKAPEPHVEEDDDDELDSKLNYKPPPQKSLKELQEMDKDDESLIKYKKTLLGDGPVVTDPKAPNVVVTRLTLVCESAPGPITMDLTGDLEALKKETIVLKEGSEYRVKIHFKVNRDIVSGLKYVQHTYRTGVKVDKATFMVGSYGPRPEEYEFLTPVEEAPKGMLARGTYHNKSFFTDDDKQDHLSWEWNLSIKKEWTE
B3: Heterogeneous nuclear ribonucleoprotein A0: potential cIAP1 substrate (protein, UniProt Q13151 1-305, looked up)
Heterogeneous nuclear …: MENSQLCKLFIGGLNVQTSESGLRGHFEAFGTLTDCVVVVNPQTKRSRCFGFVTYSNVEEADAAMAASPHAVDGNTVELKRAVSREDSARPGAHAKVKKLFVGGLKGDVAEGDLIEHFSQFGTVEKAEIIADKQSGKKRGFGFVYFQNHDAADKAAVVKFHPIQGHRVEVKKAVPKEDIYSGGGGGGSRSSRGGRGGRGRGGGRDQNGLSKGGGGGYNSYGGYGGGGGGGYNAYGGGGGGSSYGGSDYGNGFGGFGSYSQHQSSYGPMKSGGGGGGGGSSWGGRSNSGPYRGGYGGGGGYGGSSF
B4: Elongation factor 1-alpha 1: potential cIAP1 substrate (protein, UniProt P68104 2-462, looked up)
Elongation factor 1-alpha 1: GKEKTHINIVVIGHVDSGKSTTTGHLIYKCGGIDKRTIEKFEKEAAEMGKGSFKYAWVLDKLKAERERGITIDISLWKFETSKYYVTIIDAPGHRDFIKNMITGTSQADCAVLIVAAGVGEFEAGISKNGQTREHALLAYTLGVKQLIVGVNKMDSTEPPYSQKRYEEIVKEVSTYIKKIGYNPDTVAFVPISGWNGDNMLEPSANMPWFKGWKVTRKDGNASGTTLLEALDCILPPTRPTDKPLRLPLQDVYKIGGIGTVPVGRVETGVLKPGMVVTFAPVNVTTEVKSVEMHHEALSEALPGDNVGFNVKNVSVKDVRRGNVAGDSKNDPPMEAAGFTAQVIILNHPGQISAGYAPVLDCHTAHIACKFAELKEKIDRRSGKKLEDGPKFLKSGDAAIVDMVPGKPMCVESFSDYPPLGRFAVRDMRQTVAVGVIKAVDKKAAGAGKVTKSAQKAQKAK
B5: Acetyl-CoA acetyltransferase, mitochondrial: potential cIAP1 substrate (protein, UniProt P24752 34-427, looked up)
Acetyl-CoA acetyltransferase, …: VSKPTLKEVVIVSATRTPIGSFLGSLSLLPATKLGSIAIQGAIEKAGIPKEEVKEAYMGNVLQGGEGQAPTRQAVLGAGLPISTPCTTINKVCASGMKAIMMASQSLMCGHQDVMVAGGMESMSNVPYVMNRGSTPYGGVKLEDLIVKDGLTDVYNKIHMGSCAENTAKKLNIARNEQDAYAINSYTRSKAAWEAGKFGNEVIPVTVTVKGQPDVVVKEDEEYKRVDFSKVPKLKTVFQKENGTVTAANASTLNDGAAALVLMTADAAKRLNVTPLARIVAFADAAVEPIDFPIAPVYAASMVLKDVGLKKEDIAMWEVNEAFSLVVLANIKMLEIDPQKVNINGGAVSLGHPIGMSGARIVGHLTHALKQGEYGLASICNGGGGASAMLIQKL
B6: Putative annexin A2-like protein: potential cIAP1 substrate (protein, UniProt A6NMY6 2-339, looked up)
Putative annexin A2-like …: STVHEILCKLSLEGDHSTPPSAYGSVKAYTNFDAERDALNIETAIKTKGVDEVTIVNIVTNRDNAQRQDIVFSYQRRTKKELASALKSALSGHLETVILGLLKTPAQYDASELKASMKGLGTDEDSLIEIICSRTNQELQEINRVYKEMYKTDLEKDIISDTSGDFRKLMVALAKGRRAEDGSVIDYELIDQDAQDLYDAGVKRKGTDVPKWISIMTERSVPHLQKVFDRYKSYSPYDMLESIRKEVKGDLENAFLNLVQRIQNKPLYFADQLYDSMKGKGTRDKVLIRIMVSRSEVDMLKIRSEFKRKYGKSLYYYIQQDTKGDYQKALLYLCGGDD
B7: Isocitrate dehydrogenase [NADP], mitochondrial: potential cIAP1 substrate (protein, UniProt P48735 40-452, looked up)
Isocitrate dehydrogenase …: ADKRIKVAKPVVEMDGDEMTRIIWQFIKEKLILPHVDIQLKYFDLGLPNRDQTDDQVTIDSALATQKYSVAVKCATITPDEARVEEFKLKKMWKSPNGTIRNILGGTVFREPIICKNIPRLVPGWTKPITIGRHAHGDQYKATDFVADRAGTFKMVFTPKDGSGVKEWEVYNFPAGGVGMGMYNTDESISGFAHSCFQYAIQKKWPLYMSTKNTILKAYDGRFKDIFQEIFDKHYKTDFDKNKIWYEHRLIDDMVAQVLKSSGGFVWACKNYDGDVQSDILAQGFGSLGLMTSVLVCPDGKTIEAEAAHGTVTRHYREHQKGRPTSTNPIASIFAWTRGLEHRGKLDGNQDLIRFAQMLEKVCVETVESGAMTKDLAGCIHGLSNVKLNEHFLNTTDFLDTIKSNLDRALGRQ
B8: Pre-mRNA-processing factor 19: potential cIAP1 substrate (protein, UniProt Q9UMS4 2-504, looked up)
Pre-mRNA-processing factor 19: SLICSISNEVPEHPCVSPVSNHVYERRLIEKYIAENGTDPINNQPLSEEQLIDIKVAHPIRPKPPSATSIPAILKALQDEWDAVMLHSFTLRQQLQTTRQELSHALYQHDAACRVIARLTKEVTAAREALATLKPQAGLIVPQAVPSSQPSVVGAGEPMDLGELVGMTPEIIQKLQDKATVLTTERKKRGKTVPEELVKPEELSKYRQVASHVGLHSASIPGILALDLCPSDTNKILTGGADKNVVVFDKSSEQILATLKGHTKKVTSVVFHPSQDLVFSASPDATIRIWSVPNASCVQVVRAHESAVTGLSLHATGDYLLSSSDDQYWAFSDIQTGRVLTKVTDETSGCSLTCAQFHPDGLIFGTGTMDSQIKIWDLKERTNVANFPGHSGPITSIAFSENGYYLATAADDSSVKLWDLRKLKNFKTLQLDNNFEVKSLIFDQSGTYLALGGTDVQIYICKQWTEILHFTEHSGLTTGVAFGHHAKFIASTGMDRSLKFYSL

The molecules below were run against T1, cIAP1 (Homo sapiens, UniProt P61081+Q13490) (assay: SILAC mass spectrometry screen for cIAP1 substrates with NEDDylator^cIAP1 in apoptotic Jurkat cell lysate). Conditions: Light lysate with NEDDylator^cIAP1, Heavy lysate with Ubc12.
T1 construct: cIAP1(ΔR) (residues 1-555); GST (N, cleaved yes); made in house; host or cells: E. coli BL21 (DE3)
T1 sequence (Q13490+P61081 fused): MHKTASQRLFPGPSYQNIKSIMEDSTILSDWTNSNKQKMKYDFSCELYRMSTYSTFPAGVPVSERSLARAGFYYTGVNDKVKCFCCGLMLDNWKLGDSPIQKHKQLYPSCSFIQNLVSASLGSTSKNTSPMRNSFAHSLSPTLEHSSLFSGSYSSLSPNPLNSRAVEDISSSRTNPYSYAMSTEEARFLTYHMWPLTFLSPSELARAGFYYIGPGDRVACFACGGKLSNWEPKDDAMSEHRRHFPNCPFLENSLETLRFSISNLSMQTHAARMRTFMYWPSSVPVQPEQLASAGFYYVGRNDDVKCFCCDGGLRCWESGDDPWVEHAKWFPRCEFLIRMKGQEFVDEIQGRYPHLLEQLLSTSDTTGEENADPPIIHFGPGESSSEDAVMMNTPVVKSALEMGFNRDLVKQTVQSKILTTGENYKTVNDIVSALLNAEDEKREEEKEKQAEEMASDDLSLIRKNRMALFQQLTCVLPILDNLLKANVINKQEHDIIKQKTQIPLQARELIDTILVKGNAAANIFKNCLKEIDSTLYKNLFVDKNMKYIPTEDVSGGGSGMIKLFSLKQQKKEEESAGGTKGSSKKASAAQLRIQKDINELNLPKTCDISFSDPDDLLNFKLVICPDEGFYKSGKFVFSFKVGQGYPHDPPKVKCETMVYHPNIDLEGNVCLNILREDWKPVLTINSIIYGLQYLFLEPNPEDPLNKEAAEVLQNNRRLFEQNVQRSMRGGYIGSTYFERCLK
Type: biochemical
Description: Jurkat cells were grown in media containing either light or heavy isotopes of lysine and arginine and induced to undergo apoptosis with STS. Light cell extracts were incubated with the respective catalytic tagging system for each of the two IAPs and the heavy extracts labeled only with the wild-type NEDD8 E2, Ubc12. […] 100 mg ^13C6^15N2 L-Lys.2HCl and 86 mg ^13C6 L-Arg.HCl (Cambridge Isotope) were added to the same amount of medium to generate the “Heavy” medium. Jurkat cells were cultured separately in “Light” or “Heavy” medium for 7 days to allow for thorough isotope incorporation. For IAP substrate identification, 400 million cells were treated with 2 μM STS for 4 hours, harvested, lysed in M-PER mammalian protein extraction buffer (Thermo/Pierce) in the presence of protease inhibitors (100× ProteoBlock cocktail, Fermentas) and mixed with cell lysate prepared from 400 million untreated cells. […] Purified NEDDylated proteins were trypsinized and analyzed with tandem mass spectrometry (LC-MS/MS).
For SILAC experiments, Jurkat cells were cultured separately in “Light” (supplemented with regular Lys and Arg) or “Heavy” (supplemented with ^13C6^15N2 Lys and ^13C6 Arg) medium for 7 days to allow for thorough isotope incorporation. Apoptotic “Light” and “Heavy” cell extracts were prepared individually. The lysates were cleared by spinning and then diluted in 50 mM HEPES pH 7.4, 150 mM NaCl to 5 mg/ml and supplemented with 5 mM ATP, 10 mM MgCl2. Endogenous NEDD8 E1 is cell lysate was used to catalyze the reaction. HB-NEDD8 was added to both lysate at mass ratio 1:500; the catalytic tagging system was added to the “Light” lysate at mass ratio 1:1000. Equal molar of Ubc12 was added to the “Heavy” lysate. […] NEDDylated proteins were separated by one-dimensional SDS-PAGE, and trypsinized for LC-MS/MS analysis.
For liquid chromatography—Tandem mass spectrometry (LC-MS/MS) analysis, the tryptic peptides were first desalted and concentrated with a C18 Ziptip (Millipore). LC-MS/MS was carried out by reverse phase LC interfaced with a LTQ-Orbitrap (ThermoFisher Scientific) hybrid mass spectrometer. A nanoflow HPLC (NanoAcquity UPLC system, Waters Corporation) was equipped with a trap column (180 μm×20 mm, 5 μm SymmetryC18, from Waters) and an analytical column (100 μm×100 mm, 1.7 μm BEH130C18, from Waters). Peptides were eluted over a linear gradient from 2% solvent A (0.1% formic acid in water) to 35% solvent B (0.1% formic acid in acetonitrile) at 350 nL/min over 35 min. MS and MS/MS spectra were acquired in a data-dependent mode with MS spectra acquired in the Orbitrap at 30,000 resolving power and 6 CID MS/MS spectra acquired per MS in the LTQ linear ion trap. Dynamic exclusion was set at 90 seconds to prevent repeated MS/MS on the same precursor ion.
The identified peptides were searched against a random decoy protein database for evaluating the false positive rates. […] The decoy peptides were removed from the data. Protein IDs were assigned only when at least two unique peptides were identified from the same protein. For SILAC experiment, Light/Heavy ratios for the identified peptides were calculated, using ProteinProspector. The media Light/Heavy ratios of all the peptides identified for each protein were used to represent the Light/Heavy ratio of the protein.

Row | Molecule | L/H (Light/Heavy ratio)
1 | ELAV-like protein 1: potential cIAP1 substrate | 8.78
2 | Eukaryotic initiation factor 4A-I: potential cIAP1 substrate | 5.31
3 | Glyceraldehyde-3-phosphate dehydrogenase: potential cIAP1 substrate | 5.21
4 | Hemoglobin subunit alpha: potential cIAP1 substrate | 5.22
5 | Heterogeneous nuclear ribonucleoprotein U: potential cIAP1 substrate | 4.15
6 | Isocitrate dehydrogenase [NAD] subunit beta, mitochondrial: potential cIAP1 substrate | 14
7 | Non-POU domain-containing octamer-binding protein: potential cIAP1 substrate | 7.52
8 | TAR DNA-binding protein 43: potential cIAP1 substrate | 26.9
9 | B1 | 6.17
10 | B2 | 8.76
11 | B3 | 20.7
12 | B4 | 4.4
13 | B5 | 5.67
14 | B6 | 8.75
15 | B7 | 6.51
16 | B8 | 22.2
